According to patent US20030049729A1:

Molecular target: plasminogen
Assay: cell-based or functional assay

Substance “Bacteriophages which harbored K2S on gpIII (K2S-phi; printed with a garbled symbol as K2S-?) (from UniProt P00750 209-562)” has a fibrinogen-dependent enzymatic activity of less than 0.25 IU/ml.
